The values below come from publication PMC10347550, “Cyclic Ruthenium-Peptide Conjugates as Integrin-Targeting Phototherapeutic Prodrugs for the Treatment of Brain Tumors” (Journal of the American Chemical Society, 2023).

In one series the test system is MCF7 cells. Description: Cellular Ru uptake by ICP-MS. The series is classed as cell-based, human. To be noted: dark, 6 h, triplicate wells, ± SEM. As for the experimental part:
(§1) U87MG cells (6000), PC-3 cells (5000), and MCF7 cells (8000) were seeded in 96-well plates, each well containing 100 μL of Opti-MEM. After 24 h, 12.5 μM drugs dissolved in Opti-MEM were added to each well and the plates were incubated in a normoxic or hypoxic incubator for 6 h. After that, the drug-containing medium was removed from each well, which was washed with PBS buffer once. Then, cells were stained by Nuclear Blue (Invitrogen, R37605) for 30 min to stain all nuclei (2 drops/mL medium). After this, the dye was thereafter removed and replaced with fresh medium. The entire well was imaged with 10× objective magnification and 7 × 6 montage using epifluorescence on a Nikon TiE2000 widefield microscope with a perfect focus system and automated xy-stage. The cell number of every well was analyzed by counting the nuclei using Image-Pro Analyzer 7.0. Thereafter, the medium was removed and the cells were digested by adding 100 μL of 65% HNO3 for 30 min at room temperature. The cell lysates were transferred into a 96-deep well plate (Eppendorf, E951033502), followed by the addition of 0.9 mL of MilliQ water into each well, and the plate was then mixed well with a 1000 μL Eppendorf pipette.
(§2) The ruthenium concentration was measured in each sample by ICP-MS (NexION 2000, PerkinElmer), providing the metal content in each well in ppb. Combining the cell numbers and Ru uptake, averaging over technical triplicates, the ruthenium uptake values were finally expressed in μg Ru/million cells.

The next series relates to PC-3 cells. Description: Cellular Ru uptake by ICP-MS. To be noted: dark, 6 h, triplicate wells, ± SEM. The class given is cell-based, human. The procedure: as §1, §2
In series [1] the test system is U87MG cells. Briefly: Cellular Ru uptake by ICP-MS. The series is classed as cell-based, human. To be noted: dark, 6 h, triplicate wells, ± SEM. As for the experimental part:
as §1, §2

Series [2] has as its system ITGAV knockdown U87MG cells (U87MG-kd). Briefly: Cellular Ru uptake by ICP-MS, 2 h. The class given is cell-based, human. To be noted: 10 μM, dark, normoxia, n = 3. As for the experimental part:
The uptake studies in U87MG and U87MG-kd cell lines were conducted as follows: 2 × 10^5 cells were cultured in 6-well plates for 24 h in Opti-MEM (2 mL), after which cells were incubated with Δ-[1]Cl2 or Δ-[3]Cl2 (10 μM) for 2 h, washed with cold PBS twice, harvested, concentrated in 200 μL of PBS, and counted using trypan blue and a cell counter (Bio-Rad). Finally, cell pellets were collected in 1.5 mL Eppendorf tubes after removing additional PBS by centrifuging at 500g; 0.25 mL of 65% HNO3 was then added to each tube, and all tubes were kept at room temperature (RT) overnight. The cell lysates were transferred to 15 mL centrifuge tubes (Biologix) and filled with 4.75 mL of MilliQ H2O.
as §2

A short description of series [3]: Dark stability by UV-vis spectroscopy. The class given is physicochemical. The note with it: 24 h.
Series [4] concerns U87MG cells. Briefly: Intracellular ROS generation, CellROX Deep Red, flow cytometry. The note with it: 15 µM, 24 h.
Experimental: The generation of ROS (reactive oxygen species) in U87MG cells was measured using a ROS deep red fluorescence indicator (Abcam, ab186029). U87MG (1 × 10^5, 1 mL) were seeded into 12-well plates and incubated for 24 h in the dark under normoxia. The cells were then treated with 15 μM complexes with Opti-MEM, Λ-[1]Cl2, Δ-[1]Cl2, cisplatin, or Rose Bengal. There are two groups for each drug (dark + light). After 24 h of incubation under normoxia, the plate was washed with cold PBS once, and cells were trypsinized, harvested, and then resuspended in 150 μL of PBS. The cell suspension from the centrifuge tubes was transferred to 96-round-bottom well plates (Thermo Scientific, 268200), and the light group was irradiated for 20 min with 520 nm light (dose = 13.1 J/cm^2). After which, the Cellular ROS Deep Red dye (abcam, ab186029) was added with 1000× dilution, and cells were further stained for 1 h. Untreated cells were maintained as negative controls, whereas a 250 μM tBHP solution in Opti-MEM complete was administered as a positive control for ROS. The levels of intracellular ROS were then determined using the CytoFLEX flow cytometer. Forward versus side scatter (FSC vs SSC) gating was used to select the population of interest and avoid cell debris. A forward scatter height (FSC-H) vs forward scatter area (FSC-A) gating was used for doublet exclusion. Fluorescence measurements were acquired with the APC-A (638 nm excitation, 660/10 nm emission) channel given the known excitation/emission wavelengths of the ROS Deep Red dye (650/675 nm, respectively). All flow cytometry data were processed using FlowLogic 8.5 software.

As to “[Ru(Ph2phen)2(κ^S,κ^N-(Ac-MRGDH-NH2))]Cl2 (sidechain bridge or staple) [Δ-[1]Cl2]”, the Ru accumulation in the series on MCF7 cells (MCF7, hypoxia 1% O2, 12.5 µM) is on record as 0.31 ± 0.01 µg Ru/million cells; in the series on MCF7 cells (MCF7, normoxia 21% O2, 12.5 µM), 0.21 ± 0.01 µg Ru/million cells; in the series with PC-3 cells (PC-3, hypoxia 1% O2, 12.5 µM), 0.63 ± 0.02 µg Ru/million cells; in the series with PC-3 cells (PC-3, normoxia 21% O2, 12.5 µM), 0.51 ± 0.01 µg Ru/million cells; in the series with U87MG cells [1] (hypoxia 1% O2, 12.5 µM) it was 0.78 ± 0.01 µg Ru/million cells; in the series with U87MG cells [1] (normoxia 21% O2, 12.5 µM), 0.73 ± 0.01 µg Ru/million cells. In addition, the “uptake amount compared to U87MG-wt cells” value in series [2] is recorded as “significantly decreased”. In addition, the “dark stability, absorbance spectra” value in series [3] (50 μM in Opti-MEM containing 2.5% FCS, UV-vis) is “did not show any variation for 24 h”. Besides, the “intensity of the UV-vis spectrum” value in series [3] (50 μM in Opti-MEM deprived of FCS) was “gradually decreased, suggesting precipitation”. Besides, the “Ratio of L/D (light/dark ROS ratio)” value with U87MG cells [4] is 8.24.

As for “[Ru(Ph2phen)2(κ^S,κ^N-(Ac-MRGDH-NH2))]Cl2 (sidechain bridge or staple) [Λ-[1]Cl2]”, the Ru accumulation was 0.31 ± 0.01 µg Ru/million cells in the series with MCF7 cells (MCF7, hypoxia 1% O2, 12.5 µM); 0.25 ± 0.01 µg Ru/million cells with MCF7 cells (MCF7, normoxia 21% O2, 12.5 µM, listed as L-[1]Cl2); 0.68 ± 0.01 µg Ru/million cells in the series on PC-3 cells (PC-3, hypoxia 1% O2, 12.5 µM, listed as L-[1]Cl2); 0.55 ± 0.03 µg Ru/million cells in the series with PC-3 cells (PC-3, normoxia 21% O2, 12.5 µM, listed as L-[1]Cl2); 0.84 ± 0.01 µg Ru/million cells in the series with U87MG cells [1] (hypoxia 1% O2, 12.5 µM, listed as L-[1]Cl2); 0.74 ± 0.01 µg Ru/million cells in the series with U87MG cells [1] (normoxia 21% O2, 12.5 µM). In addition, the “Ratio of L/D (light/dark ROS ratio)” value with U87MG cells [4] was determined as 7.03.
